Earlier results in paper PMC8470622.
“And” between values parts separate entries of the source, which are not always exact repeats. Identical values can stand only once. Like-named read-outs stand apart in the source and are kept apart here.

Key:
EGFR (Homo sapiens) [1] = target: EGFR (Homo sapiens) (UniProt P00533)
EGFR (Homo sapiens) [2] = target: EGFR (Homo sapiens) (UniProt P00533); assay: radioligand
[3] = target: EGFR (high-affinity state) (Homo sapiens) (UniProt P00533); assay: radioligand
[4] = target: EGFR (low-affinity state) (Homo sapiens) (UniProt P00533); assay: radioligand

Kd (EGFR (Homo sapiens) [1]): 0.3 nM and 0.32 nM
Kd (EGFR (Homo sapiens) [2]): 1.52 nM
Kd [3]: 1.06 nM
Kd [4]: 2.85 nM
Substance: EGF (from UniProt P01133)
